Patent US20220143136A1, “USE OF ANNEXINS IN PREVENTING AND TREATING MUSCLE MEMBRANE INJURY” (NORTHWESTERN UNIVERSITY, priority 2018, published 2022)

Legend:
[1] = tested on: mdx/hLTBP4 dystrophic muscle; assay: Anti-HIS immunofluorescence localization after systemic injection, mdx/hLTBP4; assay type: in vivo, mouse; conditions: 6 hours post systemic injection, vs PBS
Experimental: (§1) Immunofluorescence microscopy. Sections (10 μm thick) from the center of frozen-embedded muscles were collected on the cryostat (chamber, −20° C.; sample, −15° C.; catalog number CM1950; Leica, Wetzlar, Germany) for immunostaining. Tissues were fixed with 4% paraformaldehyde for 10 minutes on ice. Block and permeabilization were with 0.1% Triton (catalog number X-100; Sigma-Aldrich), 10% fetal bovine serum, and PBS for 60 minutes. For dystrophin detection, anti-dystrophin (ab15277; Abcam, Cambridge, Mass.) was used at a dilution of 1:100 overnight at 4° C. Sections were PBS rinsed, incubated with secondary antibody goat anti rabbit (A11008, Invitrogen) for 1 hour, PBS rinsed, and mounted in vectashield with DAPI (H-1200, Vector Laboratories). Imaging was performed using a Zeiss Axio Observer A1 microscope (Zeiss, Oberkochen, Germany), using a 10× objective. ZEN software (Zeiss, Jena, Germany) was used for acquiring images. Fluorescence quantitation and muscle area were performed using FIJI (NIH). Surface plots were created in FIJI (NIH). Fluorescence volume was quantified using Imaris Software v9.1.2.
Immunofluorescence microscopy. Mice were systemically injected with recombinant annexin A6 with a C-terminal HIS tag (R&D). Muscle was harvested and flash frozen. […]

[2] = tested on: tibialis anterior muscles of wildtype mice; assay: Cardiotoxin injury, intramuscular recombinant annexin A6, Evan's blue dye uptake; assay type: in vivo, mouse; conditions: for decrease in Evan's blue dye uptake (fluorescence over muscle area): 25 μg/ml intramuscular 2 hours before cardiotoxin, harvested 3 hours post injury, vs control muscle; for cardiotoxin-induced muscle damage, dye uptake by gross imaging: intramuscular pretreatment vs control
Experimental: Cardiotoxin Injury and analysis. […] Additionally, mice were injected intraperitoneally with Evans' blue dye at 5 μl/g body weight (E-2129; Sigma-Aldrich, St. Louis, Mo.) dissolved in phosphate-buffered saline at 10 mg/mL. […] Cardiotoxin injury was performed injecting 20 μl of a 10 μM cardiotoxin (discontinued, Sigma-Aldrich) solution in PBS in tibialis muscles in sedated animals (3% isoflurane, 0.8 l/min O2) 2 hours post pretreatment. Cardiotoxin was released down the midline of the muscle to induce a homogenous area of injury at the center of the muscle. 3 hours post cardiotoxin injection muscle was harvested and frozen in liquid nitrogen.
as §1
Cardiotoxin Injury and analysis. […] Additionally, mice were injected with Evans' blue dye at 5 μl/g body weight (E-2129; Sigma-Aldrich, St. Louis, Mo.) dissolved in phosphate-buffered saline at 10 mg/mL cardiotoxin injury was performed injecting 20 μl of a 10 μM cardiotoxin solution in PBS in tibialis anterior or gastroc/soleus muscles in sedated animals (3% isoflurane, 0.8 l/min O2) 2 hours post pretreatment. Cardiotoxin was released down the midline of the muscle to induce a homogenous area of injury at the center of the muscle. 3 hours post cardiotoxin injection muscle was harvested.
Evans blue dye uptake. […] Fluorescence quantitation, surface plots, and muscle area were performed using FIJI (NIH). For whole tissue dye quantification, whole tissue was dissected, finely minced, weighed, and incubated at 55° C. in 1 mL of formamide for 2 hours. Spectrophotometric absorbance was measured at 620 nm.

B1: recombinant annexin A6: recombinant human annexin A6 protein with C-terminal HIS tag (5186-A6-050, R&D systems); mouse protein from Northwestern core in one cohort (protein, UniProt P08133 2-673, looked up)
Annexin A6: AKPAQGAKYRGSIHDFPGFDPNQDAEALYTAMKGFGSDKEAILDIITSRSNRQRQEVCQSYKSLYGKDLIADLKYELTGKFERLIVGLMRPPAYCDAKEIKDAISGIGTDEKCLIEILASRTNEQMHQLVAAYKDAYERDLEADIIGDTSGHFQKMLVVLLQGTREEDDVVSEDLVQQDVQDLYEAGELKWGTDEAQFIYILGNRSKQHLRLVFDEYLKTTGKPIEASIRGELSGDFEKLMLAVVKCIRSTPEYFAERLFKAMKGLGTRDNTLIRIMVSRSELDMLDIREIFRTKYEKSLYSMIKNDTSGEYKKTLLKLSGGDDDAAGQFFPEAAQVAYQMWELSAVARVELKGTVRPANDFNPDADAKALRKAMKGLGTDEDTIIDIITHRSNVQRQQIRQTFKSHFGRDLMTDLKSEISGDLARLILGLMMPPAHYDAKQLKKAMEGAGTDEKALIEILATRTNAEIRAINEAYKEDYHKSLEDALSSDTSGHFRRILISLATGHREEGGENLDQAREDAQVAAEILEIADTPSGDKTSLETRFMTILCTRSYPHLRRVFQEFIKMTNYDVEHTIKKEMSGDVRDAFVAIVQSVKNKPLFFADKLYKSMKGAGTDEKTLTRIMVSRSEIDLLNIRREFIEKYDKSLHQAIEGDTSGDFLKALLALCGGED
modifications: C-terminal His tag
notes: recombinant human annexin A6 protein with C-terminal HIS tag (5186-A6-050, R&D systems); mouse protein from Northwestern core in one cohort
[1]; listed as rANXA6
  anti-HIS staining at the sarcolemma / plasma membrane: localized to the plasma membrane
[1]; listed as recombinant annexin A6-HIS
  anti-HIS staining at the sarcolemma / plasma membrane: presence of recombinant annexin A6-HIS at the sarcolemma
[2]
  decrease in Evan's blue dye uptake (fluorescence over muscle area): 50%
  cardiotoxin-induced muscle damage, dye uptake by gross imaging: reduced
[2]; listed as rANXA6
  decrease in Evan's blue dye uptake (fluorescence over muscle area): approximately 50%
  cardiotoxin-induced muscle damage, dye uptake by gross imaging: decreased
